# Measurements from US20190022243A1.
# B1: IgG1-YW327.6S2 (antibody, from another filing, V domains shown)
# VH: EVQLVESGGGLVQPGGSLRLSCAASGFSLSGSWIHWVRQAPGKGLEWVGWINPYRGYAYYADSVKGRFTISADTSKNTAYLQMNSLRAEDTAVYYCAREYSGWGGSSVGYAMDYWGQGTLVTVSS
# VL: DIQMTQSPSSLSASVGDRVTITCRASQDVSTAVAWYQQKPGKAPKLLIYSASFLYSGVPSRFSGSGSGTDFTLTISSLQPEDFATYYCQQSYTTPPTFGQGTKVEIK
# Molecular target: human AXL (full length) (human (Homo sapiens)) (UniProt P30530)
# Assay: flow cytometry, A431 cells pre-incubated with 10 µg/mL Gas6 (competitor: Gas6)
binder,measurement,value
B1,fold higher EC50 after Gas6 pre-incubation than without Gas6,21 fold
same,maximal binding in the presence of Gas6 (% of binding without Gas6),19%
